Reference: patent US20220406376A1 (MacroGenics, published 2022)

Tests used:
[1] = molecular target: T1, HER2/neu on the surface of target cells (N87, JIMT-1, MCF-7, MDA-MB231) (UniProt P04626 23-1255, limits assumed); test: flow cytometry on N87 cells, anti-hFc APC MFI
T1 construct: whole, on cells

[2] = molecular target: T1, HER2/neu on the surface of target cells …; test: flow cytometry on MCF-7 cells, anti-hFc APC MFI
[3] = molecular target: T1, HER2/neu on the surface of target cells …; test: flow cytometry on JIMT-1 cells, anti-hFc APC MFI
[4] = molecular target: T2, CD137 on the surface of cells (activated human T cells; engineered CHO cells) (human, UniProt Q07011 24-255); test: flow cytometry on activated pan T cells (donor D46433, CD8 PE), anti-hFc APC MFI
T2 construct: whole, on cells; also called human CD137; cell surface expressed CD137

[5] = molecular target: T2, CD137 on the surface of cells …; test: flow cytometry on activated pan T cells gated CD8, anti-hFc APC MFI
[6] = molecular target: T1, HER2/neu on the surface of target cells …; test: flow cytometry on N87 gastric cancer cells, anti-hFc APC MFI

T2 sequence (Q07011 24-255, change not shown): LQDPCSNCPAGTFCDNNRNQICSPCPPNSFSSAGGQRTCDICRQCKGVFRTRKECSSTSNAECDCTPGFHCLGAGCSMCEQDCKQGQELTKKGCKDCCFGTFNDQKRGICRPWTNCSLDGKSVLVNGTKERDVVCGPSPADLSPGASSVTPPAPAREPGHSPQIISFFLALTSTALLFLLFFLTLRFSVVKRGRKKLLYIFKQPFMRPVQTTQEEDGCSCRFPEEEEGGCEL

B1: TRIDENT-A2 (bispecific antibody, human IgG1, kappa, L234A L235A)
chain 1: DIQMTQSPSSLSASVGDRVTITCRPSQDISNYLNWYQQKPDKTVKLLIYYTSRLRSGVPSRFSGSGSGTDFTFTISSLQPEDIATYFCQQGDTLPYTFGQGTKLEIKGGGSGGGGQVQLVQSGAEVKKPGASVKVSCKASGYTFTSYWINWVKQAPGQGLEWIGNIYPSDSYTNYNQKFKDKATITADKSTSTAYMELSSLRSEDTAVYYCTRDYGSAYSMSTWGQGTTVTVSSASTKGEVAACEKEVAALEKEVAALEKEVAALEKGGGDKTHTCPPCPAPEAAGGPSVFLFPPKPKDTLMISRTPEVTCVVVDVSHEDPEVKFNWYVDGVEVHNAKTKPREEQYNSTYRVVSVLTVLHQDWLNGKEYKCKVSNKALPAPIEKTISKAKGQPREPQVYTLPPSREEMTKNQVSLWCLVKGFYPSDIAVEWESNGQPENNYKTTPPVLDSDGSFFLYSKLTVDKSRWQQGNVFSCSVMHEALHNHYTQKSLSLSPGK
chain 2: DIQMTQSPSSLSASVGDRVTITCRPSQDISNYLNWYQQKPDKTVKLLIYYTSRLRSGVPSRFSGSGSGTDFTFTISSLQPEDIATYFCQQGDTLPYTFGQGTKLEIKGGGSGGGGQVQLVQSGAEVKKPGASVKVSCKASGYTFTSYWINWVKQAPGQGLEWIGNIYPSDSYTNYNQKFKDKATITADKSTSTAYMELSSLRSEDTAVYYCTRDYGSAYSMSTWGQGTTVTVSSASTKGKVAACKEKVAALKEKVAALKEKVAALKE
heavy: QVQLVQSGAEVKKPGASVKVSCKASGYTFTNYGMNWVRQAPGQGLEWMGWINTNIGEPTYTEEFKGRVTMTRDTSISTAYMELSRLRSDDTAVYYCARDDGYGNRVSYWGQGTLVTVSSASTKGPSVFPLAPSSKSTSGGTAALGCLVKDYFPEPVTVSWNSGALTSGVHTFPAVLQSSGLYSLSSVVTVPSSSLGTQTYICNVNHKPSNTKVDKRVEPKSCDKTHTCPPCPAPEAAGGPSVFLFPPKPKDTLMISRTPEVTCVVVDVSHEDPEVKFNWYVDGVEVHNAKTKPREEQYNSTYRVVSVLTVLHQDWLNGKEYKCKVSNKALPAPIEKTISKAKGQPREPQVYTLPPSREEMTKNQVSLSCAVKGFYPSDIAVEWESNGQPENNYKTTPPVLDSDGSFFLVSKLTVDKSRWQQGNVFSCSVMHEALHNRYTQKSLSLSPGK
light: DIQMTQSPSSLSASVGDRVTITCKASQDISNYLSWFQQKPGKAPKTLIYRANRLQSGVPSRFSGSGSGTDFTLTISSLQPEDFATYYCLQHDEFPWTFGQGTKLEIKRTVAAPSVFIFPPSDEQLKSGTASVVCLLNNFYPREAKVQWKVDNALQSGNSQESVTEQDSKDSTYSLSSTLTLSKADYEKHKVYACEVTHQGLSSPVTKSFNRGEC
[1]
  EC50 (read off the curve): ~1 nM
[2]
  EC50 (read off the curve): ~0.2 nM
[3]
  EC50 (read off the curve): ~0.7 nM
[4]
  EC50 (read off the curve): ~0.04 nM

B2: DART-4 (bispecific antibody, human IgG1, kappa, L234A L235A)
heavy: QVQLVQSGAEVKKPGASVKVSCKASGYTFTNYGMNWVRQAPGQGLEWMGWINTNIGEPTYTEEFKGRVTMTRDTSISTAYMELSRLRSDDTAVYYCARDDGYGNRVSYWGQGTLVTVSSASTKGPSVFPLAPSSKSTSGGTAALGCLVKDYFPEPVTVSWNSGALTSGVHTFPAVLQSSGLYSLSSVVTVPSSSLGTQTYICNVNHKPSNTKVDKRVEPKSCDKTHTCPPCPAPEAAGGPSVFLFPPKPKDTLMISRTPEVTCVVVDVSHEDPEVKFNWYVDGVEVHNAKTKPREEQYNSTYRVVSVLTVLHQDWLNGKEYKCKVSNKALPAPIEKTISKAKGQPREPQVYTLPPSREEMTKNQVSLSCAVKGFYPSDIAVEWESNGQPENNYKTTPPVLDSDGSFFLVSKLTVDKSRWQQGNVFSCSVMHEALHNRYTQKSLSLSPGK
light: DIQMTQSPSSLSASVGDRVTITCKASQDISNYLSWFQQKPGKAPKTLIYRANRLQSGVPSRFSGSGSGTDFTLTISSLQPEDFATYYCLQHDEFPWTFGQGTKLEIKRTVAAPSVFIFPPSDEQLKSGTASVVCLLNNFYPREAKVQWKVDNALQSGNSQESVTEQDSKDSTYSLSSTLTLSKADYEKHKVYACEVTHQGLSSPVTKSFNRGEC
chain 1: QVQLVQSGAEVKKPGASVKVSCKASGYTFTNYGMNWVRQAPGQGLEWMGWINTNIGEPTYTEEFKGRVTMTRDTSISTAYMELSRLRSDDTAVYYCARDDGYGNRVSYWGQGTLVTVSSASTKGPSVFPLAPSSKSTSGGTAALGCLVKDYFPEPVTVSWNSGALTSGVHTFPAVLQSSGLYSLSSVVTVPSSSLGTQTYICNVNHKPSNTKVDKRVEPKSCDKTHTCPPCPAPEAAGGPSVFLFPPKPKDTLMISRTPEVTCVVVDVSHEDPEVKFNWYVDGVEVHNAKTKPREEQYNSTYRVVSVLTVLHQDWLNGKEYKCKVSNKALPAPIEKTISKAKGQPREPQVYTLPPSREEMTKNQVSLWCLVKGFYPSDIAVEWESNGQPENNYKTTPPVLDSDGSFFLYSKLTVDKSRWQQGNVFSCSVMHEALHNHYTQKSLSLSPGGGGSGGGSGGGEIVLTQSPATLSLSPGERATLSCRASQSVSSYLAWYQQKPGQAPRLLIYDASNRATGIPARFSGSGSGTDFTLTISSLEPEDFAVYYCQQRSNWPPALTFGGGTKVEIKGGGSGGGGQVQLQQWGAGLLKPSETLSLTCAVYGGSFSGYYWSWIRQSPEKGLEWIGEINHGGYVTYNPSLESRVTISVDTSKNQFSLKLSSVTAADTAVYYCARDYGPGNYDWYFDLWGRGTLVTVSSGGCGGGEVAALEKEVAALEKEVAALEKEVAALEK
chain 2: EIVLTQSPATLSLSPGERATLSCRASQSVSSYLAWYQQKPGQAPRLLIYDASNRATGIPARFSGSGSGTDFTLTISSLEPEDFAVYYCQQRSNWPPALTFGGGTKVEIKGGGSGGGGQVQLQQWGAGLLKPSETLSLTCAVYGGSFSGYYWSWIRQSPEKGLEWIGEINHGGYVTYNPSLESRVTISVDTSKNQFSLKLSSVTAADTAVYYCARDYGPGNYDWYFDLWGRGTLVTVSSGGCGGGKVAALKEKVAALKEKVAALKEKVAALKE
[5]
  EC50 (read off the curve): ~0.3 nM

B3: TRIDENT-A4 (bispecific antibody, human IgG1, kappa, L234A L235A)
chain 1: DIQMTQSPSSLSASVGDRVTITCRPSQDISNYLNWYQQKPDKTVKLLIYYTSRLRSGVPSRFSGSGSGTDFTFTISSLQPEDIATYFCQQGDTLPYTFGQGTKLEIKGGGSGGGGQVQLVQSGAEVKKPGASVKVSCKASGYTFTSYWINWVKQAPGQGLEWIGNIYPSDSYTNYNQKFKDKATITADKSTSTAYMELSSLRSEDTAVYYCTRDYGSSYSYNVWGQGTTVTVSSASTKGEVAACEKEVAALEKEVAALEKEVAALEKGGGDKTHTCPPCPAPEAAGGPSVFLFPPKPKDTLMISRTPEVTCVVVDVSHEDPEVKFNWYVDGVEVHNAKTKPREEQYNSTYRVVSVLTVLHQDWLNGKEYKCKVSNKALPAPIEKTISKAKGQPREPQVYTLPPSREEMTKNQVSLWCLVKGFYPSDIAVEWESNGQPENNYKTTPPVLDSDGSFFLYSKLTVDKSRWQQGNVFSCSVMHEALHNHYTQKSLSLSPGK
chain 2: DIQMTQSPSSLSASVGDRVTITCRPSQDISNYLNWYQQKPDKTVKLLIYYTSRLRSGVPSRFSGSGSGTDFTFTISSLQPEDIATYFCQQGDTLPYTFGQGTKLEIKGGGSGGGGQVQLVQSGAEVKKPGASVKVSCKASGYTFTSYWINWVKQAPGQGLEWIGNIYPSDSYTNYNQKFKDKATITADKSTSTAYMELSSLRSEDTAVYYCTRDYGSSYSYNVWGQGTTVTVSSASTKGKVAACKEKVAALKEKVAALKEKVAALKE
heavy: QVQLVQSGAEVKKPGASVKVSCKASGYTFTNYGMNWVRQAPGQGLEWMGWINTNIGEPTYTEEFKGRVTMTRDTSISTAYMELSRLRSDDTAVYYCARDDGYGNRVSYWGQGTLVTVSSASTKGPSVFPLAPSSKSTSGGTAALGCLVKDYFPEPVTVSWNSGALTSGVHTFPAVLQSSGLYSLSSVVTVPSSSLGTQTYICNVNHKPSNTKVDKRVEPKSCDKTHTCPPCPAPEAAGGPSVFLFPPKPKDTLMISRTPEVTCVVVDVSHEDPEVKFNWYVDGVEVHNAKTKPREEQYNSTYRVVSVLTVLHQDWLNGKEYKCKVSNKALPAPIEKTISKAKGQPREPQVYTLPPSREEMTKNQVSLSCAVKGFYPSDIAVEWESNGQPENNYKTTPPVLDSDGSFFLVSKLTVDKSRWQQGNVFSCSVMHEALHNRYTQKSLSLSPGK
light: DIQMTQSPSSLSASVGDRVTITCKASQDISNYLSWFQQKPGKAPKTLIYRANRLQSGVPSRFSGSGSGTDFTLTISSLQPEDFATYYCLQHDEFPWTFGQGTKLEIKRTVAAPSVFIFPPSDEQLKSGTASVVCLLNNFYPREAKVQWKVDNALQSGNSQESVTEQDSKDSTYSLSSTLTLSKADYEKHKVYACEVTHQGLSSPVTKSFNRGEC
[1]
  EC50 (read off the curve): ~1 nM
[2]
  EC50 (read off the curve): ~0.2 nM
[3]
  EC50 (read off the curve): ~0.7 nM
[4]
  EC50 (read off the curve): ~0.05 nM

B4: DART-2 (bispecific antibody)
chain 1: not shown
chain 2: SYELTQPPSVSVSPGQTASITCSGDNIGDQYAHWYQQKPGQSPVLVIYQDKNRPSGIPERFSGSNSGNTATLTISGTQAMDEADYYCATYTGFGSLAVFGGGTKLTVLGGGSGGGGQVQLVQSGAEVKKPGASVKVSCKASGYTFTNYGMNWVRQAPGQGLEWMGWINTNIGEPTYTEEFKGRVTMTRDTSISTAYMELSRLRSDDTAVYYCARDDGYGNRVSYWGQGTLVTVSSGGCGGGKVAACKEKVAALKEKVAALKEKVAALKE
[6]
  EC50 (read off the curve): ~0.4 nM
